The values that follow come from EP3418296A1.

For experiment [1], the target named is native Sclerotium rolfsii lectin (SRL) (Sclerotium rolfsii). Put plainly: inhibition by mucin of native lectin binding to COLO 205 cells.
Experiment [2] has the same target. Put plainly: inhibition by mucin of native lectin binding to Jurkat cells.
For experiment [3] the target is unchanged. Kind of experiment: inhibition by mucin of native lectin binding to Molt 4 cells.
Experiment [4] shares this target. Kind of experiment: inhibition by mucin of native lectin binding to PA-1 cells.
For experiment [5], the target named is PA-1 cultured ovarian cells (unnamed cell surface lectin receptors). Put plainly: lectin binding to cultured PA-1 cells, lectin alone (method not described).
Experiment [6] has as its target Jurkat cultured leukemic cells (unnamed cell surface lectin receptors). Put plainly: lectin binding to cultured Jurkat cells, lectin alone (method not described).
Experiment [7] has as its target Molt 4 cultured leukemic cells (unnamed cell surface lectin receptors). Put plainly: lectin binding to cultured Molt 4 cells, lectin alone (method not described).
Experiment [8] deals with COLO 205 cultured colon cells (unnamed cell surface lectin receptors). Kind of experiment: lectin binding to cultured COLO 205 cells, lectin alone (method not described).

On to mucin, for which the % positive cells (lectin + mucin) came out at 0.99% in experiment [1], 0.5% in experiment [2], 0.24% in experiment [3] and 1.63% in experiment [4].

With native Sclerotium rolfsii lectin (SRL), the % positive cells in experiment [5] worked out at 96.7%; in experiment [6], 33.8%; in experiment [7], 88.5%; in experiment [8], 91.7%.
